Patent publication US20050032185

Assays:
[1] = test system: GST-PKBα (full length human protein kinase Bα with N-terminal glutathione S-transferase, from unstimulated 293 cells) [GST: P08515]
[2] = biological target: GST-ΔPH-PKBα (residues 118-479 of human PKBα, lacking the PH domain) (UniProt P31749)
[3] = biological target: HA-PKBα (haemagglutinin epitope-tagged human PKBα expressed in 293 cells) (UniProt P31749)
Chain of HA-PKBα (haemagglutinin epitope-tagged human PKBα expressed in 293 cells) (P31749 whole entry, looked up): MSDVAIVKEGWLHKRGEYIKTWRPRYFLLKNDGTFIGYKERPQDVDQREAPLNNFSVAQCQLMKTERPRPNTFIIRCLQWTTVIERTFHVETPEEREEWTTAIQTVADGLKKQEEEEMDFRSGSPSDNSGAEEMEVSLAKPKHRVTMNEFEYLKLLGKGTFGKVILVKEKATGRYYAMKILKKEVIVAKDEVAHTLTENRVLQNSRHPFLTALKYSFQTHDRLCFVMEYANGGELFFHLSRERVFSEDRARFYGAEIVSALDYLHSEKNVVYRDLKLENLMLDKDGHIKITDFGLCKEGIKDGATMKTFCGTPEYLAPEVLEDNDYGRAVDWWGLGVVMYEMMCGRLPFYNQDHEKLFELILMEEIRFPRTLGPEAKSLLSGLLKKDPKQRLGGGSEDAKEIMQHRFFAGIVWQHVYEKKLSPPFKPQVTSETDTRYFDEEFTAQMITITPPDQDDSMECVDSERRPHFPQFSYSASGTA

Chain of GST-PKBα (full length human protein kinase Bα with N-terminal glutathione S-transferase, from unstimulated 293 cells) [GST: P08515] (P08515 whole entry, looked up, the tested form may be a part): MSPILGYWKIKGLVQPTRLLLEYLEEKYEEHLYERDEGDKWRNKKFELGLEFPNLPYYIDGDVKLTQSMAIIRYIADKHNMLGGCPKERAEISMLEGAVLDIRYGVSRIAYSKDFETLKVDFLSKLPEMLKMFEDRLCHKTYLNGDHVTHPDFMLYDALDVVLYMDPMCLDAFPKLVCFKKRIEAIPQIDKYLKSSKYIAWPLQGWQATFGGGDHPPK
Chain of GST-ΔPH-PKBα (residues 118-479 of human PKBα, lacking the PH domain) (P31749 whole entry, looked up, stated change not applied, the tested form may be a part): as the sequence (P31749 whole entry, looked up) above

With “GST-D223A-PDK1 (full length catalytically inactive human PDK1, Asp223 changed to Ala)” the “phosphorylation and activation of GST-PKBα” value [1] was “did not phosphorylate or active GST-PKBα in the presence of PtdCho/PtdSer lipid vesicles containing PtdIns(3,4,5)P3 (data not shown)”.

For “GST-ΔPH-PDK1 (residues 1-450 of human PDK1, lacking the putative C-terminal PH domain)”, the “rate of activation of GST-PKBα by GST-ΔPH-PDK1 compared to full length wild-type GST-PDK1” value [1] was “the rate of activation was reduced about 30-fold compared to full length wild-type GST-PDK1”.

For “PtdIns(3,4,5)P3-dependent protein kinase-1 (PDK1) purified from rabbit skeletal muscle”, the “fold increase in GST-PKBα activity with sn-1,2-dilinoleoyl D-PtdIns(3,4,5)P3” value [1] was “causing a 36-fold increase in GST-PKBα activity”, the “fold increase in GST-PKBα activity with sn-1,2-dipalmitoyl PtdIns(3,4)P2 (lipid 7)” value [1] was “both inositol phospholipids increasing GST-PKBα activity about 6-fold” and the “fold increase in GST-PKBα activity with sn-1,2-dipalmitoyl PtdIns(3,4,5)P3 (lipid 6)” value [1] was “both inositol phospholipids increasing GST-PKBα activity about 6-fold”. The “increase in GST-PKBα activity” value [1] was “a >30-fold increase in activity”, the “phosphorylation of GST-PKBα (mol 32P per mol protein)” value [1] was “to a level approaching 0.7 moles of 32 P/mol protein” and the “phosphorylation of GST-PKBα (mol/mol) in the sample used for site mapping” value [1] was “phosphorylated to 0.4-0.6 mol/mol with PDK1”. For the same substance, the “specific activity of GST-PKBα reached after phosphorylation by PDK1” value [1] was “reached a specific activity of 80 U/mg”, the specific activity of PDK1 after Mono S (units of GST-PKBα activation per mg) [1] was 69500 U/mg and the “specific activity towards GST-PKBα in the presence of PtdIns(3,4,5)P3” value [1] was “PDK1 purified from rabbit skeletal muscle (100 000 U/mg)”. The “activation and phosphorylation of GST-ΔPH-PKBα” value [2] was “also activated and phosphorylated GST-ΔPH-PKBα in a PtdIns(3,4,5)P3 independent manner (data not shown)” and the “phosphorylation of immunoprecipitated HA-PKB by PDK1” value [3] was “immunoprecipitated HA-PKB was not phosphorylated effectively by PDK1”.
